Results reported in patent publication US20160031999A1 (CSL, published 2016).
Residue numbers refer to the chain shown, from its start.

T1: human IL-11Rα (form used in the assay not stated) (human, UniProt Q14626 23-363, limits assumed)
T1 construct: also called hIL-11R; hIL-11Rα
T1 sequence: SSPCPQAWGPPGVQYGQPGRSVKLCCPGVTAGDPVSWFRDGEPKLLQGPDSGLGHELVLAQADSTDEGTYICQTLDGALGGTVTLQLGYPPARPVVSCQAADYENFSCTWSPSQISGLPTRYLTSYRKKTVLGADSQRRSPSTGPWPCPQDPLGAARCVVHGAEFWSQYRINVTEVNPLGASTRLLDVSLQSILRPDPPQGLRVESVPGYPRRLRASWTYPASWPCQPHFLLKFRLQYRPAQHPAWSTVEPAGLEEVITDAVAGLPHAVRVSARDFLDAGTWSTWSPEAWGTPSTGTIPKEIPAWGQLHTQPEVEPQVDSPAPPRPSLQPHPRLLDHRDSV

T2: human IL-11Rα on transfected cells (human, UniProt Q14626 23-422)
T2 sequence: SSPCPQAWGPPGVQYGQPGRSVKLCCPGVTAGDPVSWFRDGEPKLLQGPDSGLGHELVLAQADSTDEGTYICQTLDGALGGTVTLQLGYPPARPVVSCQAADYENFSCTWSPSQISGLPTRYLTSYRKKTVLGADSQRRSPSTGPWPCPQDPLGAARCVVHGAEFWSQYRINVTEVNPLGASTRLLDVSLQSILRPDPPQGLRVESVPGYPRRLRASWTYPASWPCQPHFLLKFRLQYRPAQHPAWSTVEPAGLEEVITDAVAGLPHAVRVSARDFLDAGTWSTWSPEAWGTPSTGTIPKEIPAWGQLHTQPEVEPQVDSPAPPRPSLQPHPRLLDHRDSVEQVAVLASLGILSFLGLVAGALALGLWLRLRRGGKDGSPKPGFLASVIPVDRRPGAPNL

B1: hu8E2-TS-14 (antibody, V domains shown)
VH: EVQLLESGGGLVQPGGSLRLSCAASGFTFSWYSMTWVRQAPGKGLEWVSSIVPSGGHTQYADSVKGRFTISRDNSKNTLYLQMNSLRAEDTAVYYCAKGPGWGSFDLWGRGTLVTVSS
VL: DIQMTQSPSSLSASVGDRVTITCQASQDINNYLNWYQQKPGKAPKLLIYDASNLQTGVPSRFSGSGSGTDFTFTISSLQPEDIATYYCQQHDNQSPTFGPGTKVDIK
B2: hu8E2-TS-76 (antibody, V domains shown)
VH: B1 VH with S30W, W31R, Y32W, M34I
VL: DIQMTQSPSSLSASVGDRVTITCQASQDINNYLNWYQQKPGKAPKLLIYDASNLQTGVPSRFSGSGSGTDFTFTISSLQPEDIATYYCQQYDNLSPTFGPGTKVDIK
B3: hu8E2-TS-49 (antibody, V domains shown)
VH: B1 VH
VL: B1 VL with H91Y, D92E, N93S, S95A, T97E
B4: hu8E2-TS-97 (antibody, V domains shown)
VH: B1 VH with S54W, G55A, G56D, H57Y
VL: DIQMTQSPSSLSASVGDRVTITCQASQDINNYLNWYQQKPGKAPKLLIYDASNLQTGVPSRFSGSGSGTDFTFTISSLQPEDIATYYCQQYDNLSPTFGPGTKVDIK
B5: hu8E2-TS-91 (antibody, V domains shown)
VH: B1 VH with S30G, Y32W, M34L
VL: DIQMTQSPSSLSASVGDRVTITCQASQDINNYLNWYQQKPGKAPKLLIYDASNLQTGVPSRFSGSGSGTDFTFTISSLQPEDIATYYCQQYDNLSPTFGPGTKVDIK
B6: hu8E2-TS-22 (antibody, V domains shown)
VH: B1 VH
VL: B1 VL with H91F, D92E, N93T
B7: hu8E2-TS-32 (antibody, V domains shown)
VH: B1 VH
VL: B1 VL with Q89T, H91W, D92E, N93T
B8: hu8E2-TS-79 (antibody, V domains shown)
VH: B1 VH with S30A, Y32F, M34V
VL: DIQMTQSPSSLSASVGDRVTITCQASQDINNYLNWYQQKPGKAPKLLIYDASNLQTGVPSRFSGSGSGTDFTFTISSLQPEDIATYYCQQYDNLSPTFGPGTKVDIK
B9: hu8E2-TS-71 (antibody, V domains shown)
VH: B1 VH with S30W, W31R, Y32W, M34T
VL: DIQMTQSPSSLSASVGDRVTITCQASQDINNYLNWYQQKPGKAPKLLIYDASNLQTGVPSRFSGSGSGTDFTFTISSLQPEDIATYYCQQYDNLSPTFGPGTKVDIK
B10: hu8E2-TS-9 (antibody, V domains shown)
VH: B1 VH
VL: B1 VL with H91A, D92E, N93E
B11: hu8E2-TS-64 (antibody, V domains shown)
VH: B1 VH
VL: B1 VL with H91Y, D92E, N93S, S95W, T97Q
B12: hu8E2-TS-57 (antibody, V domains shown)
VH: B1 VH
VL: B1 VL with H91Y, D92E, N93T, S95M, T97L
B13: hu8E2-TS-92 (antibody, V domains shown)
VH: B1 VH with Y32W, M34I
VL: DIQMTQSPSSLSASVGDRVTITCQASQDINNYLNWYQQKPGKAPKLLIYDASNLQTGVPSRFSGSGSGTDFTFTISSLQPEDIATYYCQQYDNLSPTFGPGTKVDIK
B14: hu8E2-TS-82 (antibody, V domains shown)
VH: B1 VH with S30W, W31R, Y32W, M34V
VL: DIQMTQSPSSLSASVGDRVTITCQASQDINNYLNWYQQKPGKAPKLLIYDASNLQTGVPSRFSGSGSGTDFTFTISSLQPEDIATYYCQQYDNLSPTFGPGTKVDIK
B15: hu8E2-TS-51 (antibody, V domains shown)
VH: B1 VH
VL: B1 VL with H91Y, D92E, N93S, S95W, T97F
B16: hu8E2-TS-2 (antibody, V domains shown)
VH: B1 VH
VL: B1 VL with H91A, D92E, N93D
B17: hu8E2-TS-21 (antibody, V domains shown)
VH: B1 VH
VL: B1 VL with H91S, D92E, N93S
B18: hu8E2-TS-6 (antibody, V domains shown)
VH: B1 VH
VL: B1 VL with Q89E, H91F, D92E, N93S
B19: hu8E2-TS-66 (antibody, V domains shown)
VH: B1 VH with S30A, Y32W, M34I, T35A
VL: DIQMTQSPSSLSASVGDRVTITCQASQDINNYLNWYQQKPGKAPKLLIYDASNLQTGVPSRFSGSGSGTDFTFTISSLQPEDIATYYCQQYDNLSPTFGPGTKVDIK
B20: hu8E2-TS-4 (antibody, V domains shown)
VH: B1 VH
VL: B1 VL with D92E, N93F
B21: hu8E2-TS-89 (antibody, V domains shown)
VH: B1 VH with S30W, W31R, Y32W, M34I
VL: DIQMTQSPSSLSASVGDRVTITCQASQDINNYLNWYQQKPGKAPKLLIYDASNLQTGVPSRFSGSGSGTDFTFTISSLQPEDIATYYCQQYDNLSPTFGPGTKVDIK
B22: hu8E2-TS-69 (antibody, V domains shown)
VH: B1 VH with S30G, Y32W, M34V
VL: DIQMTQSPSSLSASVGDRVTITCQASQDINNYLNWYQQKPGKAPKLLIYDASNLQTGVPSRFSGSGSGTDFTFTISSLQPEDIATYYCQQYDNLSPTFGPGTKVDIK
B23: hu8E2-TS-63 (antibody, V domains shown)
VH: B1 VH
VL: B1 VL with H91Y, N93T, S95Q, T97N
B24: hu8E2-TS-7 (antibody, V domains shown)
VH: B1 VH
VL: B1 VL with D92E
B25: hu8E2-TS-55 (antibody, V domains shown)
VH: B1 VH
VL: B1 VL with H91Y, D92E, N93T, S95T, T97A
B26: hu8E2-TS-58 (antibody, V domains shown)
VH: B1 VH
VL: B1 VL with H91Y, D92E, N93T, S95Q, T97F
B27: hu8E2-TS-20 (antibody, V domains shown)
VH: B1 VH
VL: B1 VL with H91N, D92E, N93S
B28: hu8E2-TS-88 (antibody, V domains shown)
VH: B1 VH with S30W, W31R, Y32W, M34T
VL: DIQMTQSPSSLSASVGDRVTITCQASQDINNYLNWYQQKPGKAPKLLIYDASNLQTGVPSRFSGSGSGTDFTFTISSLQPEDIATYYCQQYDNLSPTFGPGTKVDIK
B29: hu8E2-TS-29 (antibody, V domains shown)
VH: B1 VH
VL: B1 VL with H91S, D92E, N93E
B30: hu8E2-TS-17 (antibody, V domains shown)
VH: B1 VH
VL: B1 VL with Q89S, H91F, D92E, N93S

target: T1, human IL-11Rα (form used in the assay …); assay: Biacore, pH 8.5, 37°C

Row | Kd | Binder
1 | 0.342 nM | B1
2 | 2.73 nM | B2
3 | 1.5 nM | B3
4 | 1.22 nM | B4
5 | 4.73 nM | B5
6 | 0.838 nM | B6
7 | 9.56 nM | B7
8 | 2.13 nM | B8
9 | 2.49 nM | B9
10 | 2.29 nM | B10
11 | 0.636 nM | B11
12 | 0.658 nM | B12
13 | 3.2 nM | B13
14 | 2.05 nM | B14
15 | 0.455 nM | B15
16 | 0.529 nM | B16
17 | 0.23 nM | B17
18 | 0.289 nM | B18
19 | 7.46 nM | B19
20 | 0.295 nM | B20
21 | 4.5 nM | B21
22 | 3.56 nM | B22
23 | 0.642 nM | B23
24 | 0.108 nM | B24
25 | 0.483 nM | B25
26 | 0.957 nM | B26
27 | 0.284 nM | B27
28 | 2.25 nM | B28
29 | 1.06 nM | B29
30 | 0.39 nM | B30

target: T2, human IL-11Rα on transfected cells; assay: cell-based or functional assay

Row | Fold increase in potency relative to 8E2 | IC50 | Binder
31 | 1.6 fold | 0.52 µg/mL | B1
32 | 3.4 fold | 0.32 µg/mL | B2
33 | 5.2 fold | 0.19 µg/mL | B3
34 | 1.6 fold | 0.26 µg/mL | B4
35 | 1.3 fold | 0.34 µg/mL | B5
36 | 2 fold | 0.4 µg/mL | B6
37 | 2.4 fold | 0.41 µg/mL | B7
38 | 5.3 fold | 0.21 µg/mL | B8
39 | 3.8 fold | 0.29 µg/mL | B9
40 | 3.1 fold | 0.68 µg/mL | B10
41 | 5.4 fold | 0.26 µg/mL | B11
42 | 3.9 fold | 0.25 µg/mL | B12
43 | 2.3 fold | 0.18 µg/mL | B13
44 | 4.3 fold | 0.26 µg/mL | B14
45 | 3.6 fold | 0.28 µg/mL | B15
46 | 7.9 fold | 0.26 µg/mL | B16
47 | 2.7 fold | 0.31 µg/mL | B17
48 | 1.4 fold | 0.41 µg/mL | B18
49 | 0.5 fold | 2.84 µg/mL | B19
50 | 6.6 fold | 0.31 µg/mL | B20
51 | 1.4 fold | 0.12 µg/mL | B21
52 | 0.9 fold | 1.46 µg/mL | B22
53 | 5.1 fold | 0.27 µg/mL | B23
54 | 3.3 fold | 0.63 µg/mL | B24
55 | 4.8 fold | 0.21 µg/mL | B25
56 | 6 fold | 0.23 µg/mL | B26
57 | 0.6 fold | 1.3 µg/mL | B27
58 | 3 fold | 0.36 µg/mL | B28
59 | 2.5 fold | 0.33 µg/mL | B29
60 | 2.3 fold | 0.35 µg/mL | B30
